The subject of series [1] is HEK-CCR2. Description: Cytotoxicity on HEK-CCR2. The settings on record: 4 hours of incubation at 37° C., 5% CO2, various concentrations.
Series [2] has as its target T1, CCR2 (Homo sapiens, UniProt P41597).
T1 construct: expressed in transfected cells
Description: CCL2-Alexa 647 binding assay on HEK-CCR2. The settings on record: competition binding. The procedure:
Binding was performed with the same cells. 200.000 cells were pre-incubated for 30 minutes at 4° C. in 100 μl buffer (PBS containing 0.5% BSA, 0.2% EDTA and NaN3 0.01%) with recombinant human CCL2 (50 nM, 100 nM and 500 nM), ECL1 (C) inverso (11.3 μM, 28.2 μM and 56.3 μM) or with buffer. After, 50 nM CCL2-alexa 647 (Almac) were add for 30 minutes at 4° C. and washed three times with 1 ml of cold buffer. Cells were incubated with 10 μl anti-human-CCR2 (BD pharmingen) for 30 minutes at 4° C. in the dark and washed three times with 1 ml of cold buffer. Cells and beads were counted on FACSCalibur flow cytometer and data were analysed with FlowJo software.

Series [3] addresses T1, CCR2. The experiment in a line: Radioligand binding assay, I125-CCL2 on HEK-CCR2. The settings on record: competition binding. The procedure: Binding assay was carried out using I125-CCL2 (specific activity 2200 Ci/mmol; Perkin elmer, inc.). 300.000 HEK cells stably expressing CCR2 and native cells were incubated with I125-CCL2 in the presence or absence of recombinant human CCL2 (10 nM or 100 nM) or ECL1 (C) inverso (1-10-30 μM) in 200 μl buffer (PBS containing 0.5% BSA and 0.01% HEPES). After 1 h incubation at 37° C., cells were washed three times with 1 ml of cold washing solution. Gamma emissions were then counted in the cell pellet with gamma counter. Non-specific binding represented less than 15% of total binding and was subtracted from total binding to define specific I125-CCL2 binding.

Series [4] concerns the target T1, CCR2. The experiment in a line: β-arrestin recruitment assay (PathHunter), CCL2-induced. It counts as cell-based. The settings on record: HEK-CCR2. The procedure:
Recruitment of β-arrestin in live cells was measured by chemoluminescence detection with the PathHunter™ eXpress β-Arrestin assay kit (DiscoveRex, #93-00446E1). Briefly, 100 μL PathHunter eXpress cells were expressing CCR2 were plated on a 96-well tissue culture treated plate for 48 hours at 37° C., 5% CO2. Cells were first incubated with ECL1 (C) inverso or control peptide and before adding 10 μL of the agonist, CCL2 diluted in OCC medium to achieve the EC80 determined beforehand or with OCC medium alone, for respectively 60 and 90 min at 37° C., 5% CO2. The reaction was stopped by adding 55 μL of the Working Detection Reagent Solution (PathHunter detection reagent) for 90 min at Room temperature. Chemoluminescent signal was read on a luminescent plate reader (TriStar LB 941, Berthold Technologies, Thoiry, France). Assays were run in triplicates.
Background: Recruitment of arrestin is a read-out of receptor activation apart from second messengers.

Series [5] has as its target T1, CCR2. Description: Calcium flux assay, CCL2-induced calcium release on HEK-CCR2. Type of series: cell-based. The procedure: Cytosolic-free calcium assay was measured by fluorescent detection with the HitHunter™ Calcium No WashPLUS (Ca NWPLUS) assay kit (DiscoveRex, #90-0091). Briefly, HEK or CHO expressing the chemokine receptor of interest (5.104) were plated overnight at 37° C., 5% CO2 before pre-loading with a calcium sensitive dye (Ca NWPLUS working reagent) supplemented with probenecid (Sigma-Aldrich, #P8761) to avoid calcium dye leakage from the cells, for 1 h at 37° C. Cells were then treated with control buffer or peptides at various concentrations and appropriate agonist. Signal was measured as function of time on a fluorescent plate reader equipped with fluidic handling (FlexStation 3, Molecular Devices). Maximum change in fluorescence over baseline (peak signal) was used to determine agonist response, as quantified using SoftMax Pro software. All experiments were run in triplicate, and results are representative of at least three independent experiments.
(In general: Calcium flux is commonly read through the fluorescence of an indicator in the cells.)

Series [6] addresses T1, CCR2. The experiment in a line: Migration assay, HEK-CCR2 induced by CCL2. It counts as cell-based. The settings on record: up to 500 μM. How it is done:
(§1) Migration assays were performed in 24-transwell inserts (Corning Costar Avon, France) with 8 μm polycarbonate filter for HEK or CHO cells and 5 μm for MBMC. […] The bottom of each well was filled with 600 μL pre-warmed chemotaxis buffer at indicated chemokine concentration. The plates were then incubated for 4 hours at 37° C. in a 5% CO2 atmosphere. […] Before counting the cells by flow cytometry, mouse leukocytes were immunophenotyped with a mix of fluorescent antibodies (anti-mouse Ly6G-PE, anti-mouse NK1.1-PE, anti-mouse […], anti-mouse 7/4-FITC, BD Biosciences) and HEK expressing chemokine receptors with appropriate fluorescent anti-human chemokine receptor. Data were analysed with FlowJo software and results are expressed as a number of cells migrating in the presence or in the absence of chemoattractant. Experiments were run in triplicate, and results are representative of at least three independent experiments.

The test system of another series is mouse monocytes. The experiment in a line: Migration assay, mouse monocytes / leukocytes (MBMC). It counts as cell-based. The settings on record: up to 500 μM. The procedure: as §1
Another series deals with T2, CCR5 (Homo sapiens, UniProt P51681).
T2 construct: expressed in transfected cells
Description: Migration assay, HEK-CCR5 induced by CCL5. It counts as cell-based. The settings on record: up to 500 μM. The procedure:
as §1

The target in the next series is T3, CX3CR1 (Homo sapiens, UniProt P49238).
T3 construct: expressed in transfected cells
T3 sequence (P49238 1-355): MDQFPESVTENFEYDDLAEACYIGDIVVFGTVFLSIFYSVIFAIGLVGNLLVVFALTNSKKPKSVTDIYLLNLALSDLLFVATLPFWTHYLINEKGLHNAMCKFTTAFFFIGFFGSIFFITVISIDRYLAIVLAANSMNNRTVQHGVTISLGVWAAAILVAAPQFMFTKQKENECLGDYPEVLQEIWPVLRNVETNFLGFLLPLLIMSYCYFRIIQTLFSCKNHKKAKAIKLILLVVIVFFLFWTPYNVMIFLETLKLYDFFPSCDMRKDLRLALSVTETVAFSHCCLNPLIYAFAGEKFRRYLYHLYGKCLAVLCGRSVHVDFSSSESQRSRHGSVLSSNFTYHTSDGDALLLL
The experiment in a line: Migration assay, HEK-CX3CR1 induced by CX3CL1. It counts as cell-based. The settings on record: up to 500 μM. How it is done:
as §1

Series [7] relates to HEK-CCR2.

“Also recorded” adds a separate entry of the source. Read-outs that look alike come from different tables or passages of the source. Non-standard residues stand in square brackets, D forms with d. Residues, ends and D or L forms follow the SMILES beside them.

T1 sequence (P41597 whole entry): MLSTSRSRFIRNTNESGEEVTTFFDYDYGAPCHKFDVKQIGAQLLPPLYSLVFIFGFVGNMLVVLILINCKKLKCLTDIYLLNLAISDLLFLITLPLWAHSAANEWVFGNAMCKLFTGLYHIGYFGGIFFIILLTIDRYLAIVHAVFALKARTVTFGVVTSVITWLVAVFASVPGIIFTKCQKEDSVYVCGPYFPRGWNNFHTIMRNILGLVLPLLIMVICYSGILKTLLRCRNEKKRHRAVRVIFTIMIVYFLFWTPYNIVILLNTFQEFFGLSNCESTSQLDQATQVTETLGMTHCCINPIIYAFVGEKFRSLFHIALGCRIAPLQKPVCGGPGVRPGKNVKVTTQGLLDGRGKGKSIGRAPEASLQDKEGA
T2 sequence (P51681 whole entry): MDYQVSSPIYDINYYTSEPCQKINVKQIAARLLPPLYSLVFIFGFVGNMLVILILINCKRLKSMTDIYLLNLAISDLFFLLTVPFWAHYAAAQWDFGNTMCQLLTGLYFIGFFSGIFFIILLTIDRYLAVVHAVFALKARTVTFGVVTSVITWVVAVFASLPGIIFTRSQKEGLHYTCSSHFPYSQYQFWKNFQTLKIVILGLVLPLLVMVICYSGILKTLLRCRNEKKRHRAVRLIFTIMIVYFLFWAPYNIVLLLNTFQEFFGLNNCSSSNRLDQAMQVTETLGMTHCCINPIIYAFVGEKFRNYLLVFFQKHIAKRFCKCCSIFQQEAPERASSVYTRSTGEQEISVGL
Description for MBCM: Mouse bone marrow cells (MBMC) were obtained from C57BL/6 mice.
Cells were immunophenotyped by adding a mix of fluorescent antibodies (anti LY-6G-PE, anti CD11b-PerCP, anti 7/4-FITC, anti F4/80-APC, anti NK-PE) and counted by FACSCalibur flow cytometry with predetermined number of beads (Polybead, carboxylate microsphere Polyscience, Inc) added to the samples. Data were analyzed with FlowJo.

Consider `CC(C)C[C@@H](N)C(=O)NCC(=O)N[C@@H](C(=O)N[C@H](Cc1ccccc1)C(=O)N[C@H](CC(C)C)C(=O)N[C@H](CCCCN)C(=O)N[C@H](CS)C(=O)O)[C@H](C)O` [ECL1 (C) inverso, LGTFLKC] (H-[dL]G[dT][dF][dL][dK][dC]-OH; N-terminus and C-terminus assumed), for which, in the series with HEK-CCR2 [1], the “cytotoxicity on HEK-CCR2” value is “No cytotoxicity effect”.

For the compound “CCL2: chemokine, natural agonist of CCR2”, in the series with CCR2 [2], the “displacement of the binding of CCL2-Alexa-647 with HEK-CCR2” value is “could displace dose-dependently; also recorded: displaces dose-dependently”. For the same compound, the “displacement of bound [125I]-CCL2 on HEK-CCR2” value with CCR2 [3] is listed as “could displace dose-dependently”. In addition, in the series with CCR2 [4], the “EC80 of CCL2 for β-arrestin recruitment” value is given as 12.5 nM. Also, the “EC80 of CCL2 for calcium release” value with CCR2 [5] came out at 50 nM.

As to CKLFTGL [ECL1 (C)], in the series with CCR2 [6], the “induction of chemotaxis by the peptide itself, HEK-CCR2” value is reported as “did not induced chemotaxis”. In the series with mouse monocytes, the “induction of chemotaxis by the peptide itself, mouse leukocytes” value is recorded as “did not induced chemotaxis”. Further, the “induction of chemotaxis by the peptide itself, HEK-CCR5” value with CCR5 is reported as “did not induced chemotaxis”. Moreover, in the series on MBCM, the “cytotoxicity on MBCM” value is listed as “no significant cell death”. Besides, the “induction of chemotaxis by the peptide itself, HEK-CX3CR1” value in the series with CX3CR1 is listed as “did not induced chemotaxis”. For the same compound, the “cytotoxicity on HEK-CCR2” value in the series with HEK-CCR2 [7] was “no significant cell death”.
